# Marks after values point to notes of the source that are not given here.
# What was measured:
# [1] = In-vitro stability of In/In-111 IMP 224, reverse phase HPLC; format: physicochemical
# Protocol: Aliquots (0.15 mL, 370 μCi) were withdrawn and mixed with 0.9 mL 0.5 M citrate buffer pH 4.0, 0.9mL 0.5 M citrate buffer pH 5.0, and 0.9 mL 0.5 M phosphate buffer pH 7.5. The stability of the labeled peptide was followed by reverse phase HPLC. HPLC Conditions: Waters Radial-Pak C-18 Nova-Pak 8×100 mm, Flow Rate 3 mL/min, Gradient: 100% A=0.3.% NH4OAc to 100% B=90% CH3CN, 0.3% NH4OAc over 10 min.
# [2] = In-vivo stability and clearance of IMP 224; parameters: species or system mouse
# Protocol: Kits were reconstituted with 4 mCi In-111 in 0.5 mL water. The In-111 kit was incubated at room temperature for 10 min and then diluted with 0.5 mL of the cold indium containing 0.5 M pH 7.2 acetate buffer.
# [3] = Pretargeting: I-125 F6 × 734-F(ab′)2, 72 h later In-111-IMP-224, biodistribution; conditions: female, mouse, in vivo, total radioactivity; for tissue to tissue ratio at 1 h / tissue to tissue ratio at 4 h / tissue to tissue ratio at 24 h: 10 uCi, tumor-to-normal organ ratio; for tissue uptake at 1 h / tissue uptake at 4 h / tissue uptake at 24 h: % ID/g tissue
# [4] = tested on: GW-39 tumor xenografts; test: as above
# [5] = nude (Taconic NCRNU), Blood, 1 h
# [6] = nude (Taconic NCRNU), Blood, 4 h
# [7] = nude (Taconic NCRNU), Blood, 24 h
# [8] = nude (Taconic NCRNU), Kidney, 1 h
# [9] = nude (Taconic NCRNU), Kidney, 4 h
# [10] = nude (Taconic NCRNU), Kidney, 24 h
# [11] = nude (Taconic NCRNU), Large Int., 1 h
# [12] = nude (Taconic NCRNU), Large Int., 4 h
# [13] = nude (Taconic NCRNU), Large Int., 24 h
# [14] = nude (Taconic NCRNU), Lungs, 1 h
# [15] = nude (Taconic NCRNU), Lungs, 4 h
# [16] = nude (Taconic NCRNU), Lungs, 24 h
# [17] = nude (Taconic NCRNU), Muscle, 1 h
# [18] = nude (Taconic NCRNU), Small Int., 4 h
# [19] = nude (Taconic NCRNU), Small Int., 24 h
# [20] = nude (Taconic NCRNU), Stomach, 1 h
# [21] = nude (Taconic NCRNU), Stomach, 4 h
# [22] = nude (Taconic NCRNU), Stomach, 24 h
smiles,measurement,setting,value
"COc1cccc2c1C(=O)c1c(O)c3c(c(O)c1C2=O)C[C@@](O)(C(CO)=NNc1ccc(C(=O)N[C@@H](CCCCNC(=O)CN(CCN(CCN(CC(=O)O)CC(=O)O)CC(=O)O)CC(=O)O)C(=O)N[C@@H](Cc2ccc(O)cc2)C(=O)N[C@@H](CCCCNC(=O)CN(CCN(CCN(CC(=O)O)CC(=O)O)CC(=O)O)CC(=O)O)C(N)=O)cc1)C[C@@H]3O[C@H]1C[C@H](N)[C@H](O)[C@H](C)O1 [IMP 224, Dox = N—NH—C6H4—CO-Lys(DTPA)-Tyr-Lys(DTPA)-NH2]",Intact Peptide,"[1]; Kit, time cell empty (first line)",00
same,Intact Peptide,"[1]; Kit, time printed '1 hr'",9
same,Intact Peptide,"[1]; pH 4.0, time printed '4 min'",00
same,Intact Peptide,"[1]; pH 4.0, time printed '9 hr'",5
same,Intact Peptide,"[1]; pH 4.0, time printed 'hr', some peptide decomposed but not included in peak areas",00*
same,Intact Peptide,"[1]; pH 5.0, time printed '0 min'",00
same,Intact Peptide,"[1]; pH 5.0, time printed '0 hr'",1
same,Intact Peptide,"[1]; pH 5.0, time printed 'hr', some peptide decomposed but not included in peak areas",00*
same,Intact Peptide,"[1]; pH 7.5, time printed '0 hr'",0
same,Intact Peptide,"[1]; pH 7.5, time printed '.5 hr' (first line)",00
same,Intact Peptide,"[1]; pH 7.5, time printed '.5 hr' (second line)",4
same,Activity Recovered,"[2]; Serum, 30 min, Animal #1",1.92 µCi
same,Activity Recovered,"[2]; Serum, 30 min, Animal #2",3.64 µCi
same,Activity Recovered,"[2]; Serum, 1 hr, Animal #1",1.21 µCi
same,Activity Recovered,"[2]; Serum, 1 hr, Animal #2",1.27 µCi
same,Activity Recovered,"[2]; Urine, 30 min, Animal #1",220 µCi
same,Activity Recovered,"[2]; Urine, 30 min, Animal #2",133 µCi
same,Activity Recovered,"[2]; Urine, 1 hr, Animal #1",41.1 µCi
same,Activity Recovered,"[2]; Urine, 1 hr, Animal #2",273 µCi
same,dose excreted,"[2]; mouse, urine, 400 uCi, read-out: renal excretion",~100%
same,integrity of excreted peptide (reverse phase HPLC),[2]; urine,excreted intact in the urine
same,antibody binding of urine activity (size exclusion HPLC),"[2]; urine, 30 min and 1 hr",could still bind to the antibody
same,tissue to tissue ratio at 1 h,"[3]; NCRNU nude, GW-39, 1 h",1
same,tissue to tissue ratio at 4 h,"[3]; NCRNU nude, GW-39, 4 h",1
same,tissue to tissue ratio at 24 h,"[3]; NCRNU nude, GW-39, 24 h",1
same,tissue to tissue ratio at 1 h,"[3]; NCRNU nude, Liver, 1 h",24 ± 5.9
same,tissue to tissue ratio at 4 h,"[3]; NCRNU nude, Liver, 4 h",35.4 ± 6.9
same,tissue to tissue ratio at 24 h,"[3]; NCRNU nude, Liver, 24 h",31.6 ± 5.8
same,tissue to tissue ratio at 1 h,"[3]; NCRNU nude, Tail, 1 h",9.4 ± 2.8
same,tissue to tissue ratio at 4 h,"[3]; NCRNU nude, Tail, 4 h",26.4 ± 5.2
same,tissue to tissue ratio at 24 h,"[3]; NCRNU nude, Tail, 24 h",55.9 ± 5.7
same,tissue to tissue ratio at 1 h,"[3]; NCRNU nude, Urine, 1 h",0.3 ± 0.5
same,tissue to tissue ratio at 4 h,"[3]; NCRNU nude, Urine, 4 h",0.71 ± 0.6
same,tissue to tissue ratio at 24 h,"[3]; NCRNU nude, Urine, 24 h",8.3 ± 1.3
same,tissue to tissue ratio at 1 h,[3]; [5],6.1 ± 2.5
same,tissue to tissue ratio at 4 h,[3]; [6],12.8 ± 2
same,tissue to tissue ratio at 24 h,[3]; [7],41.8 ± 6.3
same,tissue to tissue ratio at 1 h,[3]; [8],3 ± 0.5
same,tissue to tissue ratio at 4 h,[3]; [9],3.9 ± 0.5
same,tissue to tissue ratio at 24 h,[3]; [10],5 ± 0.5
same,tissue to tissue ratio at 1 h,[3]; [11],87.1 ± 35
same,tissue to tissue ratio at 4 h,[3]; [12],45.6 ± 19
same,tissue to tissue ratio at 24 h,[3]; [13],92.4 ± 38
same,tissue to tissue ratio at 1 h,[3]; [14],13.4 ± 2.7
same,tissue to tissue ratio at 4 h,[3]; [15],30.1 ± 4.9
same,tissue to tissue ratio at 24 h,[3]; [16],69 ± 9.4
same,tissue to tissue ratio at 1 h,[3]; [17],38.6 ± 13
same,tissue to tissue ratio at 4 h,"[3]; nude (Taconic NCRNU), Muscle, 4 h",727 ± 797
same,tissue to tissue ratio at 24 h,"[3]; nude (Taconic NCRNU), Muscle, 24 h",283 ± 46
same,tissue to tissue ratio at 4 h,[3]; [18],51.6 ± 14
same,tissue to tissue ratio at 24 h,[3]; [19],110 ± 13
same,tissue to tissue ratio at 1 h,"[3]; nude (Taconic NCRNU), Spleen, 1 h",28.7 ± 8.7
same,tissue to tissue ratio at 4 h,"[3]; nude (Taconic NCRNU), Spleen, 4 h",44.7 ± 10
same,tissue to tissue ratio at 24 h,"[3]; nude (Taconic NCRNU), Spleen, 24 h",47 ± 2.2
same,tissue to tissue ratio at 1 h,[3]; [20],48.7 ± 37
same,tissue to tissue ratio at 4 h,[3]; [21],128 ± 46
same,tissue to tissue ratio at 24 h,[3]; [22],147 ± 39
same,tissue uptake at 1 h,[3]; [5],1.8 ± 0.6 %ID/g
same,tissue uptake at 4 h,[3]; [6],0.9 ± 0.2 %ID/g
same,tissue uptake at 24 h,[3]; [7],0.2 %ID/g
same,tissue uptake at 1 h,[3]; [8],3.5 ± 0.6 %ID/g
same,tissue uptake at 4 h,[3]; [9],2.8 ± 0.3 %ID/g
same,tissue uptake at 24 h,[3]; [10],1.9 ± 0.2 %ID/g
same,tissue uptake at 1 h,[3]; [11],0.1 %ID/g
same,tissue uptake at 4 h,[3]; [12],0.3 ± 0.1 %ID/g
same,tissue uptake at 24 h,[3]; [13],0.1 ± 0.1 %ID/g
same,tissue uptake at 1 h,[3]; [14],0.8 ± 0.2 %ID/g
same,tissue uptake at 4 h,[3]; [15],0.4 %ID/g
same,tissue uptake at 24 h,[3]; [16],0.1 %ID/g
same,tissue uptake at 1 h,[3]; [17],0.3 ± 0.2 %ID/g
same,tissue uptake at 1 h,"[3]; nude (Taconic NCRNU), Small Int., 1 h",0.5 ± 0.4 %ID/g
same,tissue uptake at 4 h,[3]; [18],0.2 %ID/g
same,tissue uptake at 24 h,[3]; [19],0.1 %ID/g
same,tissue uptake at 1 h,[3]; [20],0.8 ± 1.3 %ID/g
same,tissue uptake at 4 h,[3]; [21],0.1 %ID/g
same,tissue uptake at 24 h,[3]; [22],0.1 %ID/g
same,% ID/g tissue,"[4]; GW-39, 1 h",10.3 ± 1.7 % ID/g
same,% ID/g tissue,"[4]; GW-39, 4 h",11.0 ± 2.0 % ID/g
same,% ID/g tissue,"[4]; GW-39, 24 h",9.7 ± 1.1 % ID/g
same,% ID/g tissue,"[4]; Liver, 1 h",0.4 ± 0.1 % ID/g
same,% ID/g tissue,"[4]; Liver, 4 h",0.3 ± 0.0 % ID/g
same,% ID/g tissue,"[4]; Liver, 24 h",0.3 ± 0.0 % ID/g
same,% ID/g tissue,"[4]; Muscle, 4 h",0.0 ± 0.0 % ID/g
same,% ID/g tissue,"[4]; Muscle, 24 h",0.0 ± 0.0 % ID/g
same,tumor-to-normal organ ratio,"[4]; Small Int., 1 h",31.9 ± 18
same,% ID/g tissue,"[4]; Spleen, 1 h",0.4 ± 0.1 % ID/g
same,% ID/g tissue,"[4]; Spleen, 4 h",0.2 ± 0.0 % ID/g
same,% ID/g tissue,"[4]; Spleen, 24 h",0.2 ± 0.0 % ID/g
same,% ID/g tissue,"[4]; Tail, 1 h",1.1 ± 0.2 % ID/g
same,% ID/g tissue,"[4]; Tail, 4 h",0.4 ± 0.1 % ID/g
same,% ID/g tissue,"[4]; Tail, 24 h",0.2 ± 0.0 % ID/g
same,% ID/g tissue,"[4]; Urine, 1 h",168 ± 106 % ID/g
same,% ID/g tissue,"[4]; Urine, 4 h",31.8 ± 31 % ID/g
same,% ID/g tissue,"[4]; Urine, 24 h",1.2 ± 0.2 % ID/g
